B1: TPR t1 (parent)
chain: GACCAAUCUGCCCUCAGAGCUCGAGAACAUCUUCGGAUGCAGAGGAGGCAGGCUUCGGUGGCGCGAUAGCGCCAACGUCCUCAACCUCCAAUGCAUCCCACCACAUGAUGAUGCCUGAAGAGCCUUGGUUUUUUG

Variants of: B1
Test: polymerase ribozyme fitness, log enrichment relative to wild type (log ratio); higher = more active; in vitro selection for triplet polymerase activity
How it was run: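 Each subunit of a heterodimeric triplet polymerase ribozyme was represented by a PCR-built, transcribed mutant library that underwent triplicate single-round in vitro selection with frozen incubation at −7 °C. Extended constructs were recovered by gel excision, streptavidin-bead capture and RT-PCR, and Illumina sequencing of input and output libraries kept genotypes with ≥10 input reads and ≥1 read per output. Fitness is the logarithm of genotype enrichment relative to wild-type enrichment, from inverse-variance-weighted replicate averages, with a logarithm base of 2.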

| Variant | polymerase ribozyme fitness (log ratio) |
| --- | --- |
| G120C G127C | -0.522 |
| A46U U92C A100U G113C | -4.52 |
| A46G A66U C73A C82G | -2.3 |
| G51A G60A | -1.34 |
| A5U A6C G47A | -1.7 |
| A5G C64U | 0.17 |
| C11A A83G C85U G120C | 0.982 |
| U59G G63A U87C C114U | -4.39 |
| A6U C13G A26U A43U C76A C115G | -7.08 |
| A18U U55G C56G | -4.5 |
| C56U C70U U96A | -2.06 |
| A43U G58U U126G | -3.62 |
| A2U C73U | -2.69 |
| A24C C124A | -5.24 |
| A50G | 0.111 |
| G36C G51C C70U U87A C94U C123U | -5.76 |
| G69U A103C | -1.85 |
| A5C C12G C114G | -5.39 |
| C12U G63U C70A C82A C115A G128A | -1.07 |
| G45A G52A C89U U92A G120U | -3.99 |
| C40U G51U C53U G61U G113U | -6.53 |
| G44A C53U | -2.11 |
| A5C C124A U126A U131A | 0.939 |
| A2U A16G A27U A46G G60U U106A G110A | -5.21 |

| Variant | polymerase ribozyme fitness (log ratio) |
| --- | --- |
| A16G G61U A66U U81A U106A U116C | -0.459 |
| C11A G19C G57U | -5.03 |
| U7G U32G C98A | -5.15 |
| G51C G52U C102A C124A | -4.54 |
| G63U U78G U81A A118U U129C | -4.83 |
| C34A G93A C101U | -3.81 |
| C49G A119G C123G | 1.72 |
| U7A U14A A119G | 0.0679 |
| A43G G61C | -4.3 |
| A37U U59G C124G | 1.68 |
| G42C G44C C56U C104U | -0.811 |
| C53U C89A C115U A119G | 0.658 |
| A16U G42C A43G G45U C73A U129A | -3.44 |
| G45U C56A G128C | -5.66 |
| C12G G44A G48U A103G U112A C115A | -6.92 |
| C13U G42U C70U A121C | 0.0681 |
| G44C C53U C76U | -1.48 |
| C8G C80G | -4.19 |
| C15U G36C U112C | -1.24 |
| A2U A50G G71U A118G | -2.92 |
| G71A U106A | -0.841 |
| G44U C53G G61C U81G C102U U132A | -3.53 |
| U78G C114U | -2.96 |
| C15G C70U C82G C88A | -4.4 |

| Variant | polymerase ribozyme fitness (log ratio) |
| --- | --- |
| C72U A83C C115G | -1.78 |
| C11G A29G C72G C123A | -0.598 |
| C40G A46U C56A U92A C114U | -6.09 |
| C11U C13U | -1.63 |
| G52U G57U G61U A111U | -6.65 |
| C8U A50U | -0.00813 |
| A5U U7A C40G U55G C56U G60A | -3.04 |
| C79U C94A | -4.5 |
| A84U U112G | 0.742 |
| C79G C89A | -5.03 |
| C85U A91C A95G | -2.23 |
| A29U A75U A83G U112G U133C | -2.19 |
| G19U C49U C53U G60U C123U | -5.84 |
| C40A G135U | -2.63 |
| A66U G77A | -0.981 |
| C72U C82U C98U A119G | -0.0419 |
| U9C U32C U109G | -6.53 |
| C11U C70G | -2.97 |
| C28U C40A C124U U130A | -3.36 |
| C56A A83G | -1.6 |
| G48U U87G C115G | -0.14 |
| C4G C8G C11A U14G C124U | -0.919 |
| A6G C12U G69C U112C C123A U131A | 0.491 |
| C13U U92C C104U | -1.33 |

| Variant | polymerase ribozyme fitness (log ratio) |
| --- | --- |
| G45U G69A | -4.29 |
| A18U U81A | -3.77 |
| G58C C80G C88A | -6.49 |
| G19A G51U G60A C124U | -5.85 |
| A43C G57U G77U | -2.72 |
| A27G A50U | -2.6 |
| U78C U109A | -5.34 |
| C70G C86U G110U G113C | -6.29 |
| C34G C64U | -6.18 |
| U21A C40A A46U A90U G93U | -2.45 |
| C13U G63U | -0.742 |
| C56U U130C | 1.02 |
| U33C G39U A111C A121C | -5.95 |
| A18C G39C A41U G60C C123U | -4.26 |
| U87C C98A | -4.87 |
| C53U C62G C70U G110A | -6.1 |
| A83G A90G | -0.465 |
| C12A G19C A91U U126G | -5.51 |
| G63U A111U | -4.61 |
| G58C G71C C115A A118U | -1.75 |
| G113A A118C | -2.55 |
| C13U G61C | -1.59 |
| C12A C20U A26C G48A C49A A121G U133A | -5.75 |
| A16C G47U A119U | -5.65 |

| Variant | polymerase ribozyme fitness (log ratio) |
| --- | --- |
| G61C C79A A95G G127A | -3.63 |
| C72U U133G | -0.942 |
| C53A C56G C62U C89A G120C U134G | -0.681 |
| U21A G36A | -0.614 |
| G52U C86G C89G G113C C114U A118G | -4.62 |
| C94A C114A G122A | -3 |
| A5U U92C | -1.56 |
| C94U U96A | -1.02 |
| G44C U125A | -1.22 |
| U38A U54G | -0.848 |
| A5G C104U G117C U130G | -3.77 |
| C4G C13U C53U A68G C115G A121U | -1.92 |
| U32G A41G C70U C114U | -4.09 |
| C12U C49G C97A A111U | -5.43 |
| A5G C104A G113C | -4.37 |
| A6U A43U U96A G122A | -2.28 |
| A91U | -1.81 |
| C40G G48A | -1.87 |
| C28U G45C | -3.26 |
| C8A A29G C115U U126G | -2.36 |
| G71C A74U C89U G110C U125A U129A | -7.38 |
| C15A A29G C72A U81A U87C G120C | -2.96 |
| U81C G127C | -1.22 |
| U9G C20G G44C C72U C114G | -6.99 |

| Variant | polymerase ribozyme fitness (log ratio) |
| --- | --- |
| U109C A111U | -4.13 |
| C72U | -0.393 |
| A6G A46U | -1.37 |
| C13A G63A | -2.44 |
| C4U G42U U59A | -2.49 |
| C11G C70A A95C U112A U132C | -1.46 |
| C12U U14G U32C G51A C56U G57U G127A | -5.28 |
| G42U G45C C76U | -2.43 |
| U7G G17A G39A U55A C82G C115A U130C | -2.79 |
| G19U C80A G113A | -5 |
| C73U U78C U92G | -2.25 |
| G35A U131A | -4.99 |
| C72A U131C | -0.247 |
| G36U U54G G69A | -5.06 |
| A5C C8U A16U G45U G63A | -2.38 |
| A18G U81C C89U | -4.16 |
| A26U C53U C56U | -3.75 |
| G48U U54G G58C U129A | -2.45 |
| C28A C72A | -3.59 |
| G45U G110U | -2.75 |
| A26G G71A C88G G120C | -2.52 |
| U78G G93A G120U | -0.265 |
| A29U A50C C98U | -3.99 |
| A46U C76G | -1.01 |

| Variant | polymerase ribozyme fitness (log ratio) |
| --- | --- |
| U55G G61A C73U U81A C114A A119U | -3.58 |
| G19A C53A U125G | -3.26 |
| C101U G128A | -2.16 |
| A6G C72G C88U | -0.419 |
| C3U G23C G60A U106A A111C | -6.81 |
| C12G G60A C85G G117A U131A | -1.29 |
| C40G C56A U106C | -1.47 |
| G10C A37U G63U U96A C124U U129G | -4.44 |
| U7A C49U C53U U59A C76A | -0.656 |
| C20A C56G | -3.63 |
| U21C C22U C53G G57U G60A | -5.06 |
| G45U C94U C102U | -3.33 |
| U7A G71C U81G | -5.8 |
| U21G G48C G63A | -4.12 |
| C86U G110C | -3.72 |
| G63U U81G C97U U106A G120A U133C | -3.57 |
| A6C C94U U106A G113C U126C U133G | -4.12 |
| C12G U32A A37U | -3.65 |
| C15U G44A G47A A105U | -5.8 |
| G113C | -2.02 |
| A18C A29G G61A | -2.27 |
| U59C U78G | -0.0388 |
| U9A G63C A84U G120A | 0.752 |

Source: the RNAGym collection of RNA variant scans (doi:10.1073/pnas.2313332121)
